From US20250388669A1 (published 2025)

B1: Ly2280 (bispecific antibody)
chain 1: not shown
chain 2: QVTLKESGPALVKPTQTLTLTCTFSGFSLSTSGTCVSWIRQPPGKALEWLATICWEDSKGYNPSLKSRLTISKDTSKNQAVLTMTNMDPVDTATYYCARREDSGYFWFPYWGQGTLVTVSSASTKGPSVFPLAPSSKSTSGGTAALGCLVKDYFPEPVTVSWNSGALTSGVHTFPAVLQSSGLYSLSSVVTVPSSSLGTQTYICNVNHKPSNTKVDKKVEPKSCGGGGSGGGGSGGGGSGGGGSDIQMTQSPSSVSASVGDRVTITCRASQGIYSWLAWYQQKPGKAPNLLIYTASTLQSGVPSRFSGSGSGTDFTLTISSLQPEDFATYYCQQANIFPLTFGGGTKVEIKGGGGSDKTHTCPPCPAPEAAGPSVFLFPPKPKDTLMISRTPEVTCVVVDVSHEDPEVKFNWYVDGVEVHNAKTKPREEQYNSTYRVVSVLTVLHQDWLNGKEYKCKVSNKALPAPIEKTISKAKGQPREPQVYTLPPSREEMTKNQVSLSCAVKGFYPSDIAVEWESNGQPENNYKTTPPVLDSDGSFFLVSKLTVDKSRWQQGNVFSCSVMHEALHNRFTQKSLSLSPG
light: NIQMTQSPSSLSASVGDRVTITCKAGQNVNNYLAWYQQKPGKAPKVLIFNANSLQTGVPSRFSGSGSGTDFTLTISSLQPEDFATYYCQQYNSWPTFGGGTKVEIKRTVAAPSVFIFPPSDEQLKSGTASVVCLLNNFYPREAKVQWKVDNALQSGNSQESVTEQDSKDSTYSLSSTLTLSKADYEKHKVYACEVTHQGLSSPVTKSFNRGEC
notes: PD-1/CD40: two PD-1 Fabs, central CD40 Fv (TM383)
B2: Ly2409 (bispecific antibody)
chain 1: QVTLKESGPALVKPTQTLTLTCTFSGFSLSTSGTCVSWIRQPPGKALEWLATICWEDSKGYNPSLKSRLTISKDTSKNQAVLTMTNMDPVDTATYYCARREDSGYFWFPYWGQGTLVTVSSASTKGPSVFPLAPSSKSTSGGTAALGCLVKDYFPEPVTVSWNSGALTSGVHTFPAVLQSSGLYSLSSVVTVPSSSLGTQTYICNVNHKPSNTKVDKKVEPKSCGGGGSGGGGSGGGGSGGGGSEVQLVESGGGLVQPGGSLRLSCAASGFTFTNYGLHWVRQAPGKGLEWVSSISPSGGVTYYRDSVKGRFTISRDNSKNTLYLQMNSLRAEDTAVYYCAKPFLGWGGANWIAHWGQGTLVTVSSGGGGSDKTHTCPPCPAPEAAGPSVFLFPPKPKDTLMISRTPEVTCVVVDVSHEDPEVKFNWYVDGVEVHNAKTKPREEQYNSTYRVVSVLTVLHQDWLNGKEYKCKVSNKALPAPIEKTISKAKGQPREPQVYTLPPSREEMTKNQVSLWCLVKGFYPSDIAVEWESNGQPENNYKTTPPVLDSDGSFFLYSKLTVDKSRWQQGNVFSCSVMHEALHNHYTQKSLSLSPG
chain 2: QVTLKESGPALVKPTQTLTLTCTFSGFSLSTSGTCVSWIRQPPGKALEWLATICWEDSKGYNPSLKSRLTISKDTSKNQAVLTMTNMDPVDTATYYCARREDSGYFWFPYWGQGTLVTVSSASTKGPSVFPLAPSSKSTSGGTAALGCLVKDYFPEPVTVSWNSGALTSGVHTFPAVLQSSGLYSLSSVVTVPSSSLGTQTYICNVNHKPSNTKVDKKVEPKSCGGGGSGGGGSGGGGSGGGGSDIQMTQSPSSLSASVGDRVTITCLASEDISNDLAWYQQKPGKAPKLLIYFVDRLLDGVPSRFSGSGSGTDFTLTISSLQPEDFATYYCQQSYKYPPTFGQGTKLEIKGGGGSDKTHTCPPCPAPEAAGPSVFLFPPKPKDTLMISRTPEVTCVVVDVSHEDPEVKFNWYVDGVEVHNAKTKPREEQYNSTYRVVSVLTVLHQDWLNGKEYKCKVSNKALPAPIEKTISKAKGQPREPQVYTLPPSREEMTKNQVSLSCAVKGFYPSDIAVEWESNGQPENNYKTTPPVLDSDGSFFLVSKLTVDKSRWQQGNVFSCSVMHEALHNRFTQKSLSLSPG
light: B1 light
notes: PD-1/CD40: two PD-1 Fabs, central CD40 Fv (TM559)
B3: Ly2405 (bispecific antibody, human IgG1, kappa)
chain 1: not shown
chain 2: QVTLKESGPALVKPTQTLTLTCTFSGFSLSTSGTCVSWIRQPPGKALEWLATICWEDSKGYNPSLKSRLTISKDTSKNQAVLTMTNMDPVDTATYYCARREDSGYFWFPYWGQGTLVTVSSASTKGPSVFPLAPSSKSTSGGTAALGCLVKDYFPEPVTVSWNSGALTSGVHTFPAVLQSSGLYSLSSVVTVPSSSLGTQTYICNVNHKPSNTKVDKKVEPKSCDKTHTCPPCPAPEAAGPSVFLFPPKPKDTLMISRTPEVTCVVVDVSHEDPEVKFNWYVDGVEVHNAKTKPREEQYNSTYRVVSVLTVLHQDWLNGKEYKCKVSNKALPAPIEKTISKAKGQPREPQVYTLPPSREEMTKNQVSLSCAVKGFYPSDIAVEWESNGQPENNYKTTPPVLDSDGSFFLVSKLTVDKSRWQQGNVFSCSVMHEALHNRFTQKSLSLSPGGGGGSGGGGSGGGGSGGGGSDIQMTQSPSSVSASVGDRVTITCRASQGIYSWLAWYQQKPGKAPNLLIYTASTLQSGVPSRFSGSGSGTDFTLTISSLQPEDFATYYCQQANIFPLTFGGGTKVEIK
light: B1 light
notes: PD-1/CD40: two PD-1 Fabs, terminal CD40 Fv (TM383)
B4: Ly2415 (bispecific antibody, human IgG1, kappa)
chain 1: QVTLKESGPALVKPTQTLTLTCTFSGFSLSTSGTCVSWIRQPPGKALEWLATICWEDSKGYNPSLKSRLTISKDTSKNQAVLTMTNMDPVDTATYYCARREDSGYFWFPYWGQGTLVTVSSASTKGPSVFPLAPSSKSTSGGTAALGCLVKDYFPEPVTVSWNSGALTSGVHTFPAVLQSSGLYSLSSVVTVPSSSLGTQTYICNVNHKPSNTKVDKKVEPKSCDKTHTCPPCPAPEAAGPSVFLFPPKPKDTLMISRTPEVTCVVVDVSHEDPEVKFNWYVDGVEVHNAKTKPREEQYNSTYRVVSVLTVLHQDWLNGKEYKCKVSNKALPAPIEKTISKAKGQPREPQVYTLPPSREEMTKNQVSLWCLVKGFYPSDIAVEWESNGQPENNYKTTPPVLDSDGSFFLYSKLTVDKSRWQQGNVFSCSVMHEALHNHYTQKSLSLSPGGGGGSGGGGSGGGGSGGGGSEVQLVESGGGLVQPGGSLRLSCAASGFTFTNYGLHWVRQAPGKGLEWVSSISPSGGVTYYRDSVKGRFTISRDNSKNTLYLQMNSLRAEDTAVYYCAKPFLGWGGANWIAHWGQGTLVTVSS
chain 2: QVTLKESGPALVKPTQTLTLTCTFSGFSLSTSGTCVSWIRQPPGKALEWLATICWEDSKGYNPSLKSRLTISKDTSKNQAVLTMTNMDPVDTATYYCARREDSGYFWFPYWGQGTLVTVSSASTKGPSVFPLAPSSKSTSGGTAALGCLVKDYFPEPVTVSWNSGALTSGVHTFPAVLQSSGLYSLSSVVTVPSSSLGTQTYICNVNHKPSNTKVDKKVEPKSCDKTHTCPPCPAPEAAGPSVFLFPPKPKDTLMISRTPEVTCVVVDVSHEDPEVKFNWYVDGVEVHNAKTKPREEQYNSTYRVVSVLTVLHQDWLNGKEYKCKVSNKALPAPIEKTISKAKGQPREPQVYTLPPSREEMTKNQVSLSCAVKGFYPSDIAVEWESNGQPENNYKTTPPVLDSDGSFFLVSKLTVDKSRWQQGNVFSCSVMHEALHNRFTQKSLSLSPGGGGGSGGGGSGGGGSGGGGSDIQMTQSPSSLSASVGDRVTITCLASEDISNDLAWYQQKPGKAPKLLIYFVDRLLDGVPSRFSGSGSGTDFTLTISSLQPEDFATYYCQQSYKYPPTFGQGTKLEIK
light: B1 light
notes: PD-1/CD40: two PD-1 Fabs, terminal CD40 Fv (TM559)
B5: Ly2326 (bispecific antibody, human IgG1, kappa)
chain 1: QVQLQQSGAELVRPGSSVKISCKASGYAFSSYWMNWVKQRPGQGLEWIGQIWPGDGDTNYNGKFKGKATLTADESSSTAYMQLSSLASEDSAVYFCARRETTTVGRYYYAMDYWGQGTTVTVSSASTKGPSVFPLAPSSKSTSGGTAALGCLVKDYFPEPVTVSWNSGALTSGVHTFPAVLQSSGLYSLSSVVTVPSSSLGTQTYICNVNHKPSNTKVDKKVEPKSCDKTHTCPPCPAPEAAGPSVFLFPPKPKDTLMISRTPEVTCVVVDVSHEDPEVKFNWYVDGVEVHNAKTKPREEQYNSTYRVVSVLTVLHQDWLNGKEYKCKVSNKALPAPIEKTISKAKGQPREPQVYTLPPSREEMTKNQVSLWCLVKGFYPSDIAVEWESNGQPENNYKTTPPVLDSDGSFFLYSKLTVDKSRWQQGNVFSCSVMHEALHNHYTQKSLSLSPGGGGGSGGGGSGGGGSGGGGSQVQLVQSGAEVKKPGASVKVSCKASGYTFAGFEMHWVRQAPGQGLEWMGAIDPKTGGTDYNQKFKDRVTMTRDTSISTAYMELSRLRSDDTAVYYCARDLGYFDVWGQGTLVTVSS
chain 2: QVQLQQSGAELVRPGSSVKISCKASGYAFSSYWMNWVKQRPGQGLEWIGQIWPGDGDTNYNGKFKGKATLTADESSSTAYMQLSSLASEDSAVYFCARRETTTVGRYYYAMDYWGQGTTVTVSSASTKGPSVFPLAPSSKSTSGGTAALGCLVKDYFPEPVTVSWNSGALTSGVHTFPAVLQSSGLYSLSSVVTVPSSSLGTQTYICNVNHKPSNTKVDKKVEPKSCDKTHTCPPCPAPEAAGPSVFLFPPKPKDTLMISRTPEVTCVVVDVSHEDPEVKFNWYVDGVEVHNAKTKPREEQYNSTYRVVSVLTVLHQDWLNGKEYKCKVSNKALPAPIEKTISKAKGQPREPQVYTLPPSREEMTKNQVSLSCAVKGFYPSDIAVEWESNGQPENNYKTTPPVLDSDGSFFLVSKLTVDKSRWQQGNVFSCSVMHEALHNRFTQKSLSLSPGGGGGSGGGGSGGGGSGGGGSDIQMTQSPSSLSASVGDRVTITCRASQDIRSNLNWYQQKPGGAVKLLIYYTSRLHSGVPSRFSGSGSGTDYTLTISSLQPEDFATYFCQQSEKLPRTFGGGTKVEIR
light: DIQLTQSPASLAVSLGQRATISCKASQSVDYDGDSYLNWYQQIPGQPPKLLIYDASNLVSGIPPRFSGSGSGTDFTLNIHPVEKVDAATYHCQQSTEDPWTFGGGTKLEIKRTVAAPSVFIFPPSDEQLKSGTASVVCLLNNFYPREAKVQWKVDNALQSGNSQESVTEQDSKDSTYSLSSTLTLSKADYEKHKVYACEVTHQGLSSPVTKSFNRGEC
notes: CD19/CD137: two CD19 Fabs, terminal CD137 Fv

Assays:
[1] = target: T1, PD-1 (human, UniProt Q15116 25-167, limits assumed); test: FCM or ELISA
T1 construct: The reporter assay used Jurkat T cells expressing human PD-1
T1 sequence (Q15116 25-167 limits assumed): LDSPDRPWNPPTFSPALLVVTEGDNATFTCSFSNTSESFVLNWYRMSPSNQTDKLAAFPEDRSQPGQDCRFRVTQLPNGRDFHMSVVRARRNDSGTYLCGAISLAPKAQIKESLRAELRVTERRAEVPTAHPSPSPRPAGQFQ

[2] = target: T2, CD137 (human, UniProt Q07011 24-186); test: CD137 binding by FCM or ELISA
T2 construct: Reporter assays used GS-H2-huCD137 cells expressing human CD137; also called 4-1BB/CD137; huCD137

Binder	binding result [1]	binding result [2]
B1	binds	
B2	binds	
B3	binds	
B4	binds	
B5		binds
